Measured values published in US20240132615A1 (ICHNOS SCIENCES, published 2024).

How the values were obtained:
[1] = molecular target: T1, recombinant cynomolgus monkey BCMA protein (Acrobiosystems BCA-C52H7) (cynomolgus monkey, UniProt A0A2K5UD97 1-53); experiment: SPR, Fab as analyte, immobilised cynomolgus BCMA
[2] = molecular target: T2, recombinant human BCMA protein (Acrobiosystems BCA-H522y) (human, UniProt Q02223 1-54); experiment: SPR, Fab as analyte, immobilised human BCMA, 1:1 Langmuir
T2 construct: bought protein
T2 sequence (looked up): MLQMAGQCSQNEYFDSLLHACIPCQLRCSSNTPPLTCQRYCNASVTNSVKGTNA

[3] = molecular target: T1, recombinant cynomolgus monkey BCMA …; experiment: SPR, Fab as analyte, immobilised cynomolgus BCMA, 1:1 Langmuir
[4] = molecular target: T3, human BCMA on multiple myeloma cells (human, UniProt Q02223 1-184); experiment: flow cytometry on KMS-12-BM cells; one-site binding fit
T3 construct: whole, on cells; Here the protein is the cell lines' own; also called B-cell maturation antigen; TNFRSF17
T3 sequence (looked up): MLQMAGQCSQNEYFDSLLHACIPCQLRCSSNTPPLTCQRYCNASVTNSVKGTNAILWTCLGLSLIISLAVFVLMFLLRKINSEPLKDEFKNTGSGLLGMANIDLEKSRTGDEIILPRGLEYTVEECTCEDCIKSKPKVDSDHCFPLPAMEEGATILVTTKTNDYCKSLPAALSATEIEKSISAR

[5] = molecular target: T3, human BCMA on multiple myeloma cells; experiment: flow cytometry on NCI-H929 WT cells; one-site binding fit
[6] = molecular target: T3, human BCMA on multiple myeloma cells; experiment: flow cytometry on NCI-H929 CD38 KO cells; one-site binding fit
[7] = molecular target: T3, human BCMA on multiple myeloma cells; experiment: flow cytometry on KMS-12-BM cells (BCMA+CD38+), anti-human IgG secondary, RFI
[8] = molecular target: T3, human BCMA on multiple myeloma cells; experiment: flow cytometry on NCI-H929 cells (BCMA++CD38++), anti-human IgG secondary, RFI
[9] = molecular target: T4, human CD3 on primary human T cells (human, UniProt P07766 23-207; P04234 22-171; P09693 23-182; P20963 22-164); experiment: flow cytometry on isolated human primary T cells gated CD38-negative; one-site binding fit
T4 construct: whole, on cells; Endogenous CD3 complex on isolated human T cells, gated CD38-negative; also called CD3-expressing T cells; human CD38 negative T cells

[10] = molecular target: T3, human BCMA on multiple myeloma cells; experiment: flow cytometry on NCI-H929 CD38 KO cells (BCMA++CD38-), anti-human IgG secondary, RFI
[11] = molecular target: T5, human CD38 on multiple myeloma cells (human, UniProt P28907 1-300); experiment: flow cytometry on NCI-H929 BCMA KO cells (BCMA-CD38++), anti-human IgG secondary, RFI
T5 construct: whole, on cells; Here the protein is the cell lines' own

[12] = molecular target: T6, human CD3 on primary human CD38-negative T cells (human, UniProt P07766 23-207; P04234 22-171; P09693 23-182); experiment: flow cytometry on primary human CD38-negative T cells, one-site binding fit
T6 construct: whole, on cells; Native CD3 within the TCR/CD3 complex on isolated human T cells, gated CD38-negative

[13] = molecular target: T7, human CD3 on cells (HPB-ALL cells, primary human T cells) (human, UniProt P07766 23-207); experiment: flow cytometry, human CD4+ T cells
T7 construct: whole, on cells; only the epsilon chain is written

[14] = molecular target: T7, human CD3 on cells (HPB-ALL cells, …); experiment: flow cytometry on CD4+ T cells in human PBMCs, anti-human IgG PE secondary
[15] = molecular target: T6, human CD3 on primary human …; experiment: flow cytometry on CD38-negative primary human T cells, RFI after subtraction of the negative control, six donors

T7 sequence (P07766 23-207): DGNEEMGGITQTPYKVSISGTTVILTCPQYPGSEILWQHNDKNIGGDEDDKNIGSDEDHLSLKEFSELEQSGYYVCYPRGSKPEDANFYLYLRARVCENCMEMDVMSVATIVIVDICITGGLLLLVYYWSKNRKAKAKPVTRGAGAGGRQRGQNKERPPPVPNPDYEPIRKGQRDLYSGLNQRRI
T6 sequence (P07766 23-207, chain 1 of 3): as the sequence (P07766 23-207) above
T6 sequence (P04234 22-171, chain 2 of 3): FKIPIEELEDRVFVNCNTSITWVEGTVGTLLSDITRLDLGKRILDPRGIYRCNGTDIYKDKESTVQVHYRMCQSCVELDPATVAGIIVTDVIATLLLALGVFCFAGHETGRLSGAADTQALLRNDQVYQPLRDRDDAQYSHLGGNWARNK
T6 sequence (P09693 23-182, chain 3 of 3): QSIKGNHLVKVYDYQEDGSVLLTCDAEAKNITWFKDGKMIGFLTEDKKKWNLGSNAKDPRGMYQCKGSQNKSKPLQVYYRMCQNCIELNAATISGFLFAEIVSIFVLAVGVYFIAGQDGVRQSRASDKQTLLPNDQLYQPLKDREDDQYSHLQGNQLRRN
T1 sequence (A0A2K5UD97 entry or part of it): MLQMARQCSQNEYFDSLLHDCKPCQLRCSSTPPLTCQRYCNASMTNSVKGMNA
T4 sequence (P07766 23-207, chain 1 of 4): as the sequence (P07766 23-207) above
T4 sequence (P04234 22-171, chain 2 of 4): as the sequence (P04234 22-171, chain 2 of 3) above
T4 sequence (P09693 23-182, chain 3 of 4): as the sequence (P09693 23-182, chain 3 of 3) above
T4 sequence (P20963 22-164, chain 4 of 4): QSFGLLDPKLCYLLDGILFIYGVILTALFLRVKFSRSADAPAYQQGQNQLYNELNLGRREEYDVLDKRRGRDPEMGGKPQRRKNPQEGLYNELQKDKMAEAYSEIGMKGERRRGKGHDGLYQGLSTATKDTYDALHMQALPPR

B1: anti-BCMA-UCP01-E8 FAB (Fab, V domains shown)
VH: QVQLVQSGAEVKKPGSSVKVSCKASGGQFSVQFISWVRQAPGQGLEWMGGIIPTSGDTYYAQKFQGRVTITADESTSTAYMELSSLRSEDTAVYYCARSVVDLSYVTGYYYMDIWGQGTLVTVSS
VL: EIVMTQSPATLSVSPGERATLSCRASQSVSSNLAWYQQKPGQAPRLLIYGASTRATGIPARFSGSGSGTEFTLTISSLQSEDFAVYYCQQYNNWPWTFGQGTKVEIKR
notes: Fab
binding result [1]: no binding | Kd [2]: 1740 nM

B2: anti-BCMA-PP03-E4 FAB (Fab, V domains shown)
VH: EVQLLESGGGLVQPGGSLRLSCAASGFALSYYAMSWVRQAPGKGLEWVSAISEDGGRTSYADSVKGRFTISRDNSKNTLYLQMNSLRAEDTAVYYCARASAYIPYSEFYAGFDVWGQGTLVTVSS
VL: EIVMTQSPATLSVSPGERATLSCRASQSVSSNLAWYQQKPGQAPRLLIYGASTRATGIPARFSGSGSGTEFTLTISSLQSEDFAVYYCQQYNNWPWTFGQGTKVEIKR
notes: Fab
Kd [2]: 582 nM | Kd [3]: 696 nM

B3: alnuctamab (bispecific antibody)
chain 1: EVQLLESGGGLVQPGGSLRLSCAASGFTFSDNAMGWVRQAPGKGLEWVSAISGPGSSTYYADSVKGRFTISRDNSKNTLYLQMNSLRAEDTAVYYCAKVLGWFDYWGQGTLVTVSSASTKGPSVFPLAPSSKSTSGGTAALGCLVEDYFPEPVTVSWNSGALTSGVHTFPAVLQSSGLYSLSSVVTVPSSSLGTQTYICNVNHKPSNTKVDEKVEPKSCDKTHTCPPCPAPEAAGGPSVFLFPPKPKDTLMISRTPEVTCVVVDVSHEDPEVKFNWYVDGVEVHNAKTKPREEQYNSTYRVVSVLTVLHQDWLNGKEYKCKVSNKALGAPIEKTISKAKGQPREPQVCTLPPSRDELTKNQVSLSCAVKGFYPSDIAVEWESNGQPENNYKTTPPVLDSDGSFFLVSKLTVDKSRWQQGNVFSCSVMHEALHNHYTQKSLSLSPGK
chain 2: EIVLTQSPGTLSLSPGERATLSCRASQSVSDEYLSWYQQKPGQAPRLLIHSASTRATGIPDRFSGSGSGTDFTLAISRLEPEDFAVYYCQQYGYPPDFTFGQGTKVEIKRTVAAPSVFIFPPSDRKLKSGTASVVCLLNNFYPREAKVQWKVDNALQSGNSQESVTEQDSKDSTYSLSSTLTLSKADYEKHKVYACEVTHQGLSSPVTKSFNRGEC
chain 3: not shown
chain 4: EVQLLESGGGLVQPGGSLRLSCAASGFTFSTYAMNWVRQAPGKGLEWVSRIRSKYNNYATYYADSVKGRFTISRDDSKNTLYLQMNSLRAEDTAVYYCVRHGNFGNSYVSWFAYWGQGTLVTVSSASVAAPSVFIFPPSDEQLKSGTASVVCLLNNFYPREAKVQWKVDNALQSGNSQESVTEQDSKDSTYSLSSTLTLSKADYEKHKVYACEVTHQGLSSPVTKSFNRGEC
Kd [4]: 3.9 nM | Kd [5]: 6 nM | Kd [6]: 8.1 nM | EC50 (read off the curve) [7]: ~3 nM | EC50 (read off the curve) [8]: ~6 nM | Kd [9]: 252 nM | EC50 (read off the curve) [10]: ~7 nM

B4: 83A10-TCBcv (bispecific antibody, human IgG1, kappa, L234A L235A)
chain 1: not shown
chain 2: not shown
chain 3: not shown
chain 4: B3 chain 4
notes: Comparator CD3xBCMA bispecific antibody; also called CD3 x BCMA benchmark
Kd [9]: 155 nM | binding result [11]: no binding (tested: 800 nM)

B5: 83A10-TCBcv (bispecific antibody, human IgG1, kappa, L234A L235A)
chain 1: not shown
chain 2: not shown
chain 3: not shown
chain 4: B3 chain 4
notes: CD3xBCMA bispecific comparator; also called EM-801; CD3xBCMA benchmark
Kd [12]: 80 nM | Max binding (RFI) [12]: 103000 RFI

B6: anti-BCMA-UCP01-C2 FAB (Fab, V domains shown)
VH: EVQLLESGGGLVQPGGSLRLSCAASGFIFSQYDMSWVRQAPGKGLEWVSAISLLGDFTSYADSVKGRFTISRDNSKNTLYLQMNSLRAEDTAVYYCARRLTDYISGGGDGFDVWGQGTLVTVSS
VL: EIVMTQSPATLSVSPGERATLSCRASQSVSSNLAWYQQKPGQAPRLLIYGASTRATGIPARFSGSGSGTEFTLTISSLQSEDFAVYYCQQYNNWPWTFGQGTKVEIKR
notes: Fab
binding result [1]: no binding | Kd [2]: 336 nM

B7: Anti-CD3-UCP06-C1 IgG1LALA (antibody, V domains shown)
VH: QVQLVQSGAEVKKPGSSVKVSCKASGGKFSRYAISWVRQAPGQGLEWMGGIIPKGGYAEYAQKFQGRVTITADESTSTAYMELSSLRSEDTAVYYCARYGYSLYMDIWGQGTLVTVSS
VL: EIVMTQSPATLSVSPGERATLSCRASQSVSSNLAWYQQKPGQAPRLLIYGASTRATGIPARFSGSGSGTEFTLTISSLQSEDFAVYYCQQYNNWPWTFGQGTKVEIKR
notes: IgG1 LALA; also called anti-CD3-C1
MFI at 800 nM [13]: 45200 MFI | EC50 (read off the curve) [14]: ~40 nM

B8: Anti-CD3-UCP07-F3 IgG1LALA (antibody, V domains shown)
VH: EVQLLESGGGLVQPGGSLRLSCAASGFNFSGHAVGWVRQAPGKGLEWVSAISQNGGYTLYADSVKGRFTISRDNSKNTLYLQMNSLRAEDTAVYYCARAASYGLDYALDIWGQGTLVTVSS
VL: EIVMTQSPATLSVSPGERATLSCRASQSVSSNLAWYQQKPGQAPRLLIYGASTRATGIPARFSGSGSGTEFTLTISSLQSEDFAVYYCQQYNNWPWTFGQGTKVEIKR
notes: IgG1 LALA
binding result [14]: no binding (tested: 800 nM)

B9: anti-BCMA-UCP01-A8 FAB (Fab, V domains shown)
VH: QVQLVQSGAEVKKPGSSVKVSCKASGGLFNYYIINWVRQAPGQGLEWMGGIIPTYGGAGYAQKFQGRVTITADESTSTAYMELSSLRSEDTAVYYCARSSPSISGYAFDVWGQGTLVTVSS
VL: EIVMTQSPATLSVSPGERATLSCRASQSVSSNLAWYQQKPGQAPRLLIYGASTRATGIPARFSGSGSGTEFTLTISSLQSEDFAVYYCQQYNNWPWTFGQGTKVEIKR
notes: Fab
binding result [1]: no binding | Kd [2]: 235 nM

B10: Anti-CD3-UCP07-A4 IgG1LALA (antibody, V domains shown)
VH: EVQLLESGGGLVQPGGSLRLSCAASGSTFRRYVMGWVRQAPGKGLEWVSAISQQGGYTYYADSVKGRFTISRDNSKNTLYLQMNSLRAEDTAVYYCARSSSSAFDVWGQGTLVTVSS
VL: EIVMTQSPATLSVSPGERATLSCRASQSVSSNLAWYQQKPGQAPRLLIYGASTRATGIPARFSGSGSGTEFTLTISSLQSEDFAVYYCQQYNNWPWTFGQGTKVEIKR
notes: IgG1 LALA
binding result [14]: no binding (tested: 800 nM)

B11: anti-BCMA-UCP01-F9 FAB (Fab, V domains shown)
VH: QVQLVQSGAEVKKPGSSVKVSCKASGYKFRTYAINWVRQAPGQGLEWMGGIVPISGETFYAQKFQGRVTITADESTSTAYMELSSLRSEDTAVYYCAREDYSDYWGQGTLVTVSS
VL: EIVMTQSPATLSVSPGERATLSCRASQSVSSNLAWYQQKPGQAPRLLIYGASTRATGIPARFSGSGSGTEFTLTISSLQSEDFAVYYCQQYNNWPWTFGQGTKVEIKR
notes: Fab
binding result [1]: no binding | Kd [2]: 617 nM

B12: Anti-CD3-UCP07-B2 IgG1LALA (antibody, V domains shown)
VH: EVQLVESGGGLVKPGGSLRLSCAASGFDFGKAWMAWVRQAPGKGLEWVGRIKSDFKGGDTIYAAPVKGRFTISRDDSKNTLYLQMNSLKTEDTAVYYCARGRSRGVSEFDYWGQGTLVTVSS
VL: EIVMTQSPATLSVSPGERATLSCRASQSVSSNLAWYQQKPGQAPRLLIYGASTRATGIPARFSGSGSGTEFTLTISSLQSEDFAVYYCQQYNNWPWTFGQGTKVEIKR
notes: IgG1 LALA
binding result [14]: no binding (tested: 800 nM)

B13: anti-BCMA-PP02-C2 FAB (Fab, V domains shown)
VH: QVQLVQSGAEVKKPGSSVKVSCKASGGHFSSYAISWVRQAPGQGLEWMGGIIPQHGVPSYAQKFQGRVTITADESTSTAYMELSSLRSEDTAVYYCARVLITVDGSYGGFDYWGQGTLVTVSS
VL: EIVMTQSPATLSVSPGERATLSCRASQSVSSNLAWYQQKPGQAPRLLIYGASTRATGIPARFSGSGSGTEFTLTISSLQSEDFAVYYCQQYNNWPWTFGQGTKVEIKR
notes: Fab
binding result [1]: no binding | Kd [2]: 915 nM

B14: TNB-F2B BEAT Fc (bispecific antibody, human IgG1, kappa, L234A L235A)
chain 1: EVQLVESGGGLVQPGRSLRLSCAASGFTFDDYAMHWVRQAPGKGLEWVSGISWNSGSIGYADSVKGRFTISRDNAKNSLYLQMNSLRAEDTALYYCAKDSRGYGDYRLGGAYWGQGTLVTVSSASTKGPSVFPLAPSSKSTSGGTAALGCLVKDYFPEPVTVSWNSGALTSGVHTFPAVLQSSGLYSLSSVVTVPSSSLGTQTYICNVNHKPSNTKVDKKVEPKSCDKTHTCPPCPAPEAAGGPSVFLFPPKPKDTLMISRTPEVTCVVVDVSHEDPEVKFNWYVDGVEVHNAKTKPREEQYNSTYRVVSVLTVLHQDWLNGKEYKCKVSNKALPAPIEKTISKAKGQPREPAVYTLPPSREEMTKNQVKLVCLVTGFYPSDIAVEWESSGQPENNYYTTPPMLDSDGSFSLVSWLNVDKSRWQQGNIFSCSVMHEALHNRFTQKSLSLSPG
chain 2: EVQLLESGGGLVQPGGSLRLSCAASGFTVSSYGMSWVRQAPGKGPEWVSGIRGSDGSTYYADSVKSRFTISRDNSKNTLYLQMNSLRAEDTAVYYCAKQGENDGPFDHRGQGTLVTVSSGGGGSEVQLLESGGGLVQPGGSLRLSCAASGFTVSSYGMSWVRQAPGKGPEWVSGIRGSDGSTYYADSVKSRFTISRDNSKNTLYLQMNSLRAEDTAVYYCAKQGENDGPFDHRGQGTLVTVSSGGGGTDKTHTCPPCPAPEAAGGPSVFLFPPKPKDTLMISRTPEVTCVVVDVSHEDPEVKFNWYVDGVEVHNAKTKPREEQYNSTYRVVSVLTVLHQDWLNGKEYKCKVSNKALPAPIEKTISKAKGQPREPEVATFPPSRDELTKNQVTLVCLVTGFYPSDIAVEWESNGQPENNYKTDPPLLESQGSFALSSRLRVDKSRWQQGNVFSCSVMHEALHNHYTQKSLSLSPG
light: not shown
notes: CD3 Fab (TNB-F2B) x BCMA dAb-dAb (TNB-BCMA) on a silenced (LALA) BEAT Fc; also called CD3xBCMA benchmark
Max binding (RFI) [12]: 60 RFI | binding result [15]: no binding (tested: 800 nM)
